The target of this assay is T1, MBP-Cdc12(1–765-6A) (S. pombe, UniProt Q10059 1-765, T20A | T22A | S64A | T95A | T151A | S463A).
T1 sequence (looked up): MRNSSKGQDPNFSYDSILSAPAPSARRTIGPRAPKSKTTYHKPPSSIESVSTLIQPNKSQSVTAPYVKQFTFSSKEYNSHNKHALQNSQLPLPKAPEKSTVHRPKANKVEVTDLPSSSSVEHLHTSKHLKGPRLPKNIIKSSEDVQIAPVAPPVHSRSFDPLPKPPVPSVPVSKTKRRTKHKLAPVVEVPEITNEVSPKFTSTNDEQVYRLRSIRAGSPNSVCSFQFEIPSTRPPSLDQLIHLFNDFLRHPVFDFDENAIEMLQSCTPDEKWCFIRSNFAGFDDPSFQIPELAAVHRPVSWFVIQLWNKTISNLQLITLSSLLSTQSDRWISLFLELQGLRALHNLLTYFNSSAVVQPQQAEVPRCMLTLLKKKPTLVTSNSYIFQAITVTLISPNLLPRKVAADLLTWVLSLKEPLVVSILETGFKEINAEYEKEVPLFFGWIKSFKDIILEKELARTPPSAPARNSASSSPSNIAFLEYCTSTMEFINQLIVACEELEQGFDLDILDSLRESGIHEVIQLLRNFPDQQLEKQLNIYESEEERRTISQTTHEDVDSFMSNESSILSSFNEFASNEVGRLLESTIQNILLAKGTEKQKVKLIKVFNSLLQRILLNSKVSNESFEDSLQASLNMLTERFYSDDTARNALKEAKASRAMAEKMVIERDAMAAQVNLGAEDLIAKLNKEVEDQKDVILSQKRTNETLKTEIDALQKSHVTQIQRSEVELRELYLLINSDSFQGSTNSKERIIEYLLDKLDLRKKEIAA
The assay can be described thus: pull-down.

B1: Cdc15 F-BAR(19–312) (domain or fragment, S. pombe, UniProt Q09822 19-312, looked up)
chain: SVKFRDNFWGSEDAGMDALMSRTKSSLSVLESIDEFYAKRASIEREYASKLQELAASSADIPEVGSTLNNILSMRTETGSMAKAHEEVSQQINTELRNKIREYIDQTEQQKVVAANAIEELYQKKTALEIDLSEKKDAYEYSCNKLNSYMRQTKKMTGRELDKYNLKIRQAALAVKKMDAEYRETNELLLTVTREWIDRWTEVCDAFQHIEEYRLEFLKTNMWAYANIISTACVKDDESCEKIRLTLENTNIDEDITQMIQNEGTGTTIPPLPEFNDYFKENGLNYDIDQLISK
For the molecule B1, the binding result is given as “binds”.

The values are drawn from PMC6003227 (Molecular Biology of the Cell, 2018).
